Here are results for one substance from article PMC5601083.

In this data set the target is T1, RbsR (Serratia sp. ATCC39006) (UniProt A0A2I5T2K0).
T1 sequence: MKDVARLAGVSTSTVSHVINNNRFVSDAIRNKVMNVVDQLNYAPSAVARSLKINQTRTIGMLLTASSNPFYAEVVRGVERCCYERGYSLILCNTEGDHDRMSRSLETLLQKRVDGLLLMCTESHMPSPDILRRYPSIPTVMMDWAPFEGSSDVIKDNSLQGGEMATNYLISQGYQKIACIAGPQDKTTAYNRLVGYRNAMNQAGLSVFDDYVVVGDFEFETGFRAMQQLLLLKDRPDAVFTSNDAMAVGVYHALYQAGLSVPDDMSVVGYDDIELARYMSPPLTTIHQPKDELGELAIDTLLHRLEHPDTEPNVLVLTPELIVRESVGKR
Briefly: EMSA. The following applies: complete band shift at 14 nM RbsR (protein:DNA 2.8:1); 10% glycerol, 10 mM Tris pH 8.0, 1 mM DTT, 10 mM KCl, 0.5 mM EDTA, BSA (printed 20 ug m-1), 5 nM probe, 30 min on ice; 7.5% native gel in TGE at 4 C.

Consider rbsD upstream probe (LUEGO), for which the binding is 14 nM.
